Ends that are not written are not given here.
Legend:
[1] = molecular target: T1, human α-CGRP K35Q (19-37) (human, not fully specified); test: Biacore, 37°C, G1 Fab titrated over N-biotinylated peptide on chip
T1 construct: the entry already carries K35Q
T1 peptide: SGGVVKNNFVPTNVGSQAF-NH2
Method: (§1) All Biacore assays were conducted in HBS-EP running buffer (10 mM HEPES pH 7.4, 150 mM NaCl, 3 mM EDTA, 0.005% v/v polysorbate P20). CGRP surfaces were prepared by diluting the N-biotinylated CGRP to a concentration of less than 0.001 mg/mL into HBS-EP buffer and injecting it across the SA sensor chip using variable contact times. […] Samples were typically injected for 1 minute at 100 μL/min and dissociation times of at least 10 minutes were allowed. […] An entire titration series (typically generated in duplicate) was fit globally to a 1:1 Langmuir binding model using the BIAevaluation program. This returned a unique pair of association and dissociation kinetic rate constants (respectively, kₒₙ and koff) for each binding interaction, whose ratio gave the equilibrium dissociation constant (KD=koff/kₒₙ).

[2] = molecular target: T2, human α-CGRP F27A (25-37) (human, not fully specified); test: as above
T2 construct: the entry already carries F27A
T2 peptide: NNAVPTNVGSKAF-NH2
Method: as §1

[3] = molecular target: T3, human α-CGRP G33A (25-37) (human, not fully specified); test: as above
T3 construct: the entry already carries G33A
T3 peptide: NNFVPTNVASKAF-NH2
Method: as §1

[4] = molecular target: T4, human α-CGRP K35A (19-37) (human, also: N-terminal biotin when on the chip); test: as above
T4 construct: the entry already carries K35A
T4 peptide: SGGVVKNNFVPTNVGSAAF-NH2
Method: as §1

[5] = molecular target: T5, human α-CGRP V28A (25-37) (human, not fully specified); test: as above
T5 construct: the entry already carries V28A
T5 peptide: NNFAPTNVGSKAF-NH2
Method: as §1

[6] = molecular target: T6, human α-CGRP N31A (25-37) (human, not fully specified); test: as above
T6 construct: the entry already carries N31A
T6 peptide: NNFVPTAVGSKAF-NH2
Method: as §1

[7] = molecular target: T7, human α-CGRP T30A (25-37) (human, not fully specified); test: as above
T7 construct: the entry already carries T30A
T7 peptide: NNFVPANVGSKAF-NH2
Method: as §1

[8] = molecular target: T8, human α-CGRP P29A (25-37) (human, not fully specified); test: as above
T8 construct: the entry already carries P29A
T8 peptide: NNFVATNVGSKAF-NH2
Method: as §1

[9] = molecular target: T9, human α-CGRP K35E (19-37) (human, also: N-terminal biotin when on the chip); test: as above
T9 construct: the entry already carries K35E
T9 peptide: SGGVVKNNFVPTNVGSEAF-NH2
Method: as §1

[10] = molecular target: T10, human α-CGRP K35M (19-37) (human, also: N-terminal biotin when on the chip); test: as above
T10 construct: the entry already carries K35M
T10 peptide: SGGVVKNNFVPTNVGSMAF-NH2
Method: as §1

[11] = molecular target: T11, human α-CGRP 25-38A (human, not fully specified); test: as above
T11 construct: residues 25-37 with an extra alanine added at the C-terminus (in the entry); also called 38A (25-38A)
T11 peptide: NNFVPTNVGSKAFA-NH2
Method: as §1

[12] = molecular target: T12, human α-CGRP fragment 25-37 (human, not fully specified); test: as above
T12 peptide: NNFVPTNVGSKAF-NH2
Method: as §1

[13] = molecular target: T13, human α-CGRP 1-37 (WT) (human, C-terminal amide; N-terminal biotin when captured on the SA chip; 125I-labelled in the radioligand assay); test: Biacore, 37°C, Fab over N-biotinylated CGRP on SA chip, high-resolution two-part experiment
T13 construct: also called α-human
T13 peptide: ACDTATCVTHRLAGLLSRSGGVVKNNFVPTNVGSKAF
Method: as §1, with “Biacore assay for affinity determination. […] All” for “All”
(§2) High-resolution analysis of binding interactions with extremely slow off rates. […] The protocol described above was used with the following modifications.

[14] = molecular target: T14, rat α-CGRP (1-37) (rat, C-terminal amide; N-terminal biotin when captured on the SA chip); test: as above
T14 construct: also called rat α (1-37); α-rat
T14 peptide: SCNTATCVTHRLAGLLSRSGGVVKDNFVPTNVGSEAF
Method: as §1, with “Biacore assay for affinity determination. […] All” for “All”
as §2

[15] = molecular target: T15, human α-CGRP 19-36 (human); test: Biacore competition: 50 nM G1 Fab with 10 µM peptide over human α-CGRP on chip
T15 construct: also called 19-36-COOH; peptide fragment 19-36
T15 peptide: SGGVVKNNFVPTNVGSKA-OH
Text: (§3) Y axis represents percentage of binding blocked by the presence of the competing peptide compared with the binding in the absence of the competing peptide.
(§4) All these peptides are amidated at the C-terminus.

[16] = molecular target: T16, Human calcitonin (1-32) (human, C-terminal amide); test: as above
T16 peptide: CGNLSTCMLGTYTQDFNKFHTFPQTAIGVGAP
Text: as §3, §4

[17] = molecular target: T17, Human amylin (1-37) (human, C-terminal amide); test: as above
T17 peptide: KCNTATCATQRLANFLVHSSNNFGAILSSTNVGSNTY
Text: as §3, §4

[18] = molecular target: T18, Human adrenomedullin (1-52) (human, C-terminal amide); test: as above
T18 peptide: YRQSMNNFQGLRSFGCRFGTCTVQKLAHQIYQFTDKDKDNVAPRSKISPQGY
Text: as §3, §4

Kd [1]: 1.38 nM | Kd [2]: 0.38 nM | Kd [3]: 141 nM | Kd [4]: 1.33 nM | Kd [5]: 0.28 nM | Kd [6]: 0.53 nM | Kd [7]: 0.47 nM | Kd [8]: 0.79 nM | Kd [9]: 9.73 nM | Kd [10]: 0.51 nM | binding result [11]: no binding | Kd [12]: 0.28 nM | Kd [13]: 0.063 nM | Kd [14]: 2.57 nM | binding result [15]: no binding (tested: 10 µM peptide) | binding result [16]: no binding (tested: 10 µM peptide) | binding result [17]: no binding (tested: 10 µM peptide) | binding result [18]: no binding (tested: 10 µM peptide)
B1: antibody G1 Fab fragment (Fab, V domains shown)
VH: EVQLVESGGGLVQPGGSLRLSCAASGFTFSNYWISWVRQAPGKGLEWVAEIRSESDASATHYAEAVKGRFTISRDNAKNSLYLQMNSLRAEDTAVYYCLAYFDYGLAIQNYWGQGTLVTVSS
VL: EIVLTQSPATLSLSPGERATLSCKASKRVTTYVSWYQQKPGQAPRLLIYGASNRYLGIPARFSGSGSGTDFTLTISSLEPEDFAVYYCSQSYNYPYTFGQGTKLEIK

From patent US20190071490A1 (BETH ISRAEL DEACONESS MEDICAL CENTER, published 2019)
